Measurements: article PMC3515690 (Nature structural & molecular biology, 2012)
Residue numbers refer to the chain shown, from its start. In names and notes the source's numbering stands. Read-outs that look alike come from different tables or passages of the source. Values belong to the binder of their own block, whether it stands above or below them.

Key:
[1] = target: T1, Atg7 with a Gly-Gly-Ser-Gly insertion after Leu291 (S. cerevisiae, UniProt P38862 1-630, Gly-Gly-Ser-Gly insertion after Atg7’s Leu291); experiment: cross-linking
T1 sequence (looked up): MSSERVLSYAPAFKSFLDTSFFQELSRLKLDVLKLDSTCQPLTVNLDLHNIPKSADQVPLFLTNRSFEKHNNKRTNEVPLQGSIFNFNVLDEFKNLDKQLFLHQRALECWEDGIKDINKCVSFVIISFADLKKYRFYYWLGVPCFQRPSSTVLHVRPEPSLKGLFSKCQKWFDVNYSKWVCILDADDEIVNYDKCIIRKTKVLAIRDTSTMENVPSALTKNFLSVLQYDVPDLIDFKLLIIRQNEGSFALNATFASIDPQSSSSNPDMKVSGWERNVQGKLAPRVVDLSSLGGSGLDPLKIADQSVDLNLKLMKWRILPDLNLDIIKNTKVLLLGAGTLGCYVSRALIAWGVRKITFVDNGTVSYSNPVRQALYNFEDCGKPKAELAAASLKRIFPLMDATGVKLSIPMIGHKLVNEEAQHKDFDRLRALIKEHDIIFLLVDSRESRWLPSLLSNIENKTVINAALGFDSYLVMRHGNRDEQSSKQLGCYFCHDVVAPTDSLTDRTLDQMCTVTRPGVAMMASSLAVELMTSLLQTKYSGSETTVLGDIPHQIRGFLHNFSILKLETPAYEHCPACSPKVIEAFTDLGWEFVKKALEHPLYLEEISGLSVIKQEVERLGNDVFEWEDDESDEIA

[2] = target: T2, Atg7 with residues 290–294 deleted (S. cerevisiae, UniProt P38862 1-630, deletion of residues 290–294); experiment: cross-linking
T2 sequence (looked up): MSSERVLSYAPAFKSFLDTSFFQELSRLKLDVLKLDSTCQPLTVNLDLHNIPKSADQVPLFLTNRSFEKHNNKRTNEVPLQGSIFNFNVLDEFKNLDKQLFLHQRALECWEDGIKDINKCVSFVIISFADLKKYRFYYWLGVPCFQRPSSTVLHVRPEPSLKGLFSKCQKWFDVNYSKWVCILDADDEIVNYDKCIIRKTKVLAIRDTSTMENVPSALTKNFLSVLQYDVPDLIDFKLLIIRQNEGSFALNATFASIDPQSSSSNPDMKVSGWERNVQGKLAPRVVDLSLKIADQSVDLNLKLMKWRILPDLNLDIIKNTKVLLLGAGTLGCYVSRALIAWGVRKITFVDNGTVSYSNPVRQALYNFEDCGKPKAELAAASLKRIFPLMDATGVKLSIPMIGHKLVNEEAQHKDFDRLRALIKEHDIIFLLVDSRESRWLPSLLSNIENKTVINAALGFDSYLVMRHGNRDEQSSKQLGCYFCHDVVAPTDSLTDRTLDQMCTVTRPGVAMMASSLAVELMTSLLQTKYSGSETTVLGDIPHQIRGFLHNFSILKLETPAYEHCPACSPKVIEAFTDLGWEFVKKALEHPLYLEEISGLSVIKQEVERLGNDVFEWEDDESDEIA

Atg7 P283D = target: T3, Atg7 P283D (S. cerevisiae, UniProt P38862 1-630, P283D); experiment: cross-linking
T3 sequence (looked up): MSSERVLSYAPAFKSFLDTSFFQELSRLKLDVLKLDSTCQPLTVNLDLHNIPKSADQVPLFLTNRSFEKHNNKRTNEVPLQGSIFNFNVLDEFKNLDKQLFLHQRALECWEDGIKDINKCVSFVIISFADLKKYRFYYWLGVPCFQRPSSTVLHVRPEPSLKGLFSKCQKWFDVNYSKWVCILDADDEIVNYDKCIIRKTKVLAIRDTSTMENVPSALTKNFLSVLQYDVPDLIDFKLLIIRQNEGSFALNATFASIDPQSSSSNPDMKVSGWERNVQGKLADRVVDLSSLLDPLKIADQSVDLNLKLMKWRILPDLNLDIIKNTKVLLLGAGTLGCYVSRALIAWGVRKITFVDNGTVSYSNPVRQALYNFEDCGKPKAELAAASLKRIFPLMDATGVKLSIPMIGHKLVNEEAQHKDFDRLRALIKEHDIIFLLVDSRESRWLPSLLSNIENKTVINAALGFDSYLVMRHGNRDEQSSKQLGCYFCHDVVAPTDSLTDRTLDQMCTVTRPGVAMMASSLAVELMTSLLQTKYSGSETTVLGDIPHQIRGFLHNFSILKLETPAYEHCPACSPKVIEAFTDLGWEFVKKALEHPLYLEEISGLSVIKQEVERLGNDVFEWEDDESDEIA

crystal structure [3] = target: the molecule itself; experiment: crystal structure
crystal structure [4] = target: the molecule itself; experiment: crystal structure; remark: listed apart in the source

binding result [1]: binds
binding result [2]: binds
binding result (Atg7 P283D): binds
B1: Atg10 (Cys133only, with C26A and C137A) (enzyme, S. cerevisiae, UniProt Q07879 1-167, looked up)
chain: MIPYQEWHSQLQSLYDSQIFHNWALAQDVHLNDEKDGLLLRLIPTRQLQKNTERIENKLLNHIELYLTYSKVYNEPLLLLRIWEEKSIDGIPMTKLMLPTDIESLLDVQGKFQLGLDTIINLEGSVWYSFHPCDTSAIVGDQAEFMSTYLRRWVSIFIFSWLGYEDS
modifications: Cys133 reacted with bismaleimidoethane (BMOE)

B2: Atg7 (residues 1–613) (enzyme, S. cerevisiae, UniProt P38862 1-613, looked up)
chain: MSSERVLSYAPAFKSFLDTSFFQELSRLKLDVLKLDSTCQPLTVNLDLHNIPKSADQVPLFLTNRSFEKHNNKRTNEVPLQGSIFNFNVLDEFKNLDKQLFLHQRALECWEDGIKDINKCVSFVIISFADLKKYRFYYWLGVPCFQRPSSTVLHVRPEPSLKGLFSKCQKWFDVNYSKWVCILDADDEIVNYDKCIIRKTKVLAIRDTSTMENVPSALTKNFLSVLQYDVPDLIDFKLLIIRQNEGSFALNATFASIDPQSSSSNPDMKVSGWERNVQGKLAPRVVDLSSLLDPLKIADQSVDLNLKLMKWRILPDLNLDIIKNTKVLLLGAGTLGCYVSRALIAWGVRKITFVDNGTVSYSNPVRQALYNFEDCGKPKAELAAASLKRIFPLMDATGVKLSIPMIGHKLVNEEAQHKDFDRLRALIKEHDIIFLLVDSRESRWLPSLLSNIENKTVINAALGFDSYLVMRHGNRDEQSSKQLGCYFCHDVVAPTDSLTDRTLDQMCTVTRPGVAMMASSLAVELMTSLLQTKYSGSETTVLGDIPHQIRGFLHNFSILKLETPAYEHCPACSPKVIEAFTDLGWEFVKKALEHPLYLEEISGLSVIKQEVER
modifications: catalytic Cys507 linked through bismaleimidoethane (BMOE) to Atg3 Cys234
stoichiometry N (crystal structure [3]): 2

B3: Atg7(1–613 C39S C195S C375A) (enzyme, S. cerevisiae, UniProt P38862 1-613, looked up)
chain: B2 chain with C39S, C195S, C375A
modifications: catalytic Cys507 linked through bismaleimidoethane (BMOE) to Atg10 Cys133
stoichiometry N (crystal structure [4]): 2
